# Measurements published in PMC4773887.
# Experiments:
# Assay in all cases: EMSA
# Conditions in all cases: EMSA: 10 fmol DNA, 300 uM ddGTP, 3 mM dCTP; 6% native PAGE in 0.5x TBE, 35 min, 180 V; binding buffer, salt, pH and temperature not stated (ref 59)
# [1] = system: HsPOLγA D274A (exo-);HsPOLγB WT (Homo sapiens;Homo sapiens)
# [2] = system: HsPOLγA H1134A (pol-);HsPOLγB WT (Homo sapiens;Homo sapiens)
# [3] = system: HsPOLγA Q1102A (pol-);HsPOLγB WT (Homo sapiens;Homo sapiens)
# [4] = system: HsPOLγA WT;HsPOLγB WT (Homo sapiens;Homo sapiens)
substance,measurement,setting,value
EMSA primer-template,Kd,[1],2.8 nM
same,Kd,[2],3.5 nM
same,Kd,[3],3.8 nM
same,Kd,[4],5.5 nM
